# T1: APBA3_1, O96018
# T1 sequence (O96018 389-490, limits assumed, looked up): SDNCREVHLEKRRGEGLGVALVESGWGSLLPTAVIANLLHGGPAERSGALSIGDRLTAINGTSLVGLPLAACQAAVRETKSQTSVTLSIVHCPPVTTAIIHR
# T2: DVL3, Q92997
# T2 sequence (Q92997 244-331, limits assumed, looked up): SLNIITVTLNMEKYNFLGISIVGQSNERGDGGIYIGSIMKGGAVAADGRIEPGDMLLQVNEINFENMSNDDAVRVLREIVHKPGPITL
# T3: SHANK1, Q9Y566
# T3 sequence (Q9Y566 658-767, limits assumed, looked up): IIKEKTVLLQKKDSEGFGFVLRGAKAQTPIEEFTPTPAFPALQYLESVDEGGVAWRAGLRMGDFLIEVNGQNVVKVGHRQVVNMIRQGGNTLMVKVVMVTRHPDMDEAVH
# T4: CARD11, Q9BXL7
# T4 sequence (Q9BXL7 662-765, limits assumed, looked up): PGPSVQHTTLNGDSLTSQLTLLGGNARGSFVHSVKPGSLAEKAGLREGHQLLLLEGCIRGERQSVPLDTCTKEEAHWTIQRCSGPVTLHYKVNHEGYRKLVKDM
# T5: SNTB1, Q13884
# T5 sequence (Q13884 107-205, limits assumed, looked up): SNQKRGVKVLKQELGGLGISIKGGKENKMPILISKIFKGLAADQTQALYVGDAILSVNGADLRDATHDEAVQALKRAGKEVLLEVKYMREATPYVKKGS
# T6: PDZD7_3, Q9H5P4
# T6 sequence (Q9H5P4 857-944, limits assumed, looked up): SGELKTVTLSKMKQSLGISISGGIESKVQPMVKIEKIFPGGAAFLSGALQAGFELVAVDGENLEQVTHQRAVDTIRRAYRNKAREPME
# T7: SYNJ2BP, P57105
# T7 sequence (P57105 8-110, limits assumed, looked up): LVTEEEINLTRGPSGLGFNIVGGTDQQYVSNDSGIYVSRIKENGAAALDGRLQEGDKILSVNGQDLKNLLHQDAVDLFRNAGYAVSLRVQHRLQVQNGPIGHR
# T8: SNTA1, Q13424
# T8 sequence (Q13424 82-180, limits assumed, looked up): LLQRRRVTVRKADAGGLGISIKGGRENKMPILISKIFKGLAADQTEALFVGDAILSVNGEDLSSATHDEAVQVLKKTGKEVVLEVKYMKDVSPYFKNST
# T9: GRIP1_5, Q9Y3R0
# T9 sequence (Q9Y3R0 568-668, limits assumed, looked up): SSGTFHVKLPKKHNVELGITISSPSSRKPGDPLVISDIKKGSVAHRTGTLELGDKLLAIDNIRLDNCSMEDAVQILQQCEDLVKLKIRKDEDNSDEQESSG
# T10: APBA2_2, Q99767
# T10 sequence (Q99767 654-744, limits assumed, looked up): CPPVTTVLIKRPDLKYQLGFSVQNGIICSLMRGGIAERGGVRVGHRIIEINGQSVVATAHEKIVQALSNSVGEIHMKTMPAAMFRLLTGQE
# T11: DLG3_1, Q92796
# T11 sequence (Q92796 125-227, limits assumed, looked up): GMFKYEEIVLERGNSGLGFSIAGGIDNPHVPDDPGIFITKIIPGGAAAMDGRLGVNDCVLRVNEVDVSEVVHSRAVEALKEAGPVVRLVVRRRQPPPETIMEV
# T12: TJP3_3, O95049
# T12 sequence (O95049 375-456, limits assumed, looked up): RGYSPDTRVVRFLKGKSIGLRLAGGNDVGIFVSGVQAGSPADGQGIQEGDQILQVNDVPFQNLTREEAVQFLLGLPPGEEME
# T13: SIPA1L2, Q9P2F8
# T13 sequence (Q9P2F8 945-1036, limits assumed, looked up): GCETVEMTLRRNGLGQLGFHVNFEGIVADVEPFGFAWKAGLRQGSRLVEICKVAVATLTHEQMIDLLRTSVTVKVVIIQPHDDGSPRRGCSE
# B1: KIF17, Q9P2E2 (peptide)
# chain: SKSNFGSEPL
# B2: MYOZ3, Q8TDC0 (peptide)
# chain: VRNLPESEEL
# B3: MMP24, Q9Y5R2 (peptide)
# chain: YYKRPVQEWV
# Target: T1, APBA3_1, O96018
# Test: holdup assay
# Set-up: key: below the threshold = too weak to quantify, mostly under pKd 3.1 to 4
# Conditions: plain residues with an end cap or a label only (N-terminal biotin on a linker: ado-ado)
row,pKd,Binder
1,below the threshold,B1
2,below the threshold,B2
3,below the threshold,B3

# Target: T2, DVL3, Q92997
# Test: holdup assay
# Set-up: key: below the threshold = too weak to quantify, mostly under pKd 3.1 to 4
# Conditions: plain residues with an end cap or a label only (N-terminal biotin on a linker: ado-ado)
row,pKd,Binder
1,below the threshold,B1
2,below the threshold,B2
3,4.38,B3

# Target: T3, SHANK1, Q9Y566
# Test: holdup assay
# Set-up: key: below the threshold = too weak to quantify, mostly under pKd 3.1 to 4
# Conditions: plain residues with an end cap or a label only (N-terminal biotin on a linker: ado-ado)
row,pKd,Binder
1,below the threshold,B1
2,below the threshold,B2
3,below the threshold,B3

# Target: HTRA1, Q92743
# Sequence (Q92743 360-477): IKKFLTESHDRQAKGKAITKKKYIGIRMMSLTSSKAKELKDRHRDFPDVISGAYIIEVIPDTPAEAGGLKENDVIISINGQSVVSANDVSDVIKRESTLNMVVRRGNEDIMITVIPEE
# Test: holdup assay
# Set-up: key: below the threshold = too weak to quantify, mostly under pKd 3.1 to 4
# Conditions: plain residues with an end cap or a label only (N-terminal biotin on a linker: ado-ado)
row,pKd,Binder
1,below the threshold,B1
2,3.84,B2
3,4.5,B3

# Target: MAGI2_5, Q86UL8
# Sequence (Q86UL8 915-1017): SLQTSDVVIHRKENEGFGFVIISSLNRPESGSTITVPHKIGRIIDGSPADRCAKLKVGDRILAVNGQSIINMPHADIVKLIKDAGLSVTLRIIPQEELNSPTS
# Test: holdup assay
# Set-up: key: below the threshold = too weak to quantify, mostly under pKd 3.1 to 4
# Conditions: plain residues with an end cap or a label only (N-terminal biotin on a linker: ado-ado)
row,pKd,Binder
1,below the threshold,B1
2,below the threshold,B2
3,below the threshold,B3

# Target: T4, CARD11, Q9BXL7
# Test: holdup assay
# Set-up: key: below the threshold = too weak to quantify, mostly under pKd 3.1 to 4
# Conditions: plain residues with an end cap or a label only (N-terminal biotin on a linker: ado-ado)
row,pKd,Binder
1,below the threshold,B1
2,below the threshold,B2
3,below the threshold,B3

# Target: DLG5_1, Q8TDM6
# Sequence (Q8TDM6 617-713): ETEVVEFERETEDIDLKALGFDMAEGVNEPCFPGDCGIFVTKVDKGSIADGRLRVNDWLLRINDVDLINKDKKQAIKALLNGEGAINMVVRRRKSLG
# Test: holdup assay
# Set-up: key: below the threshold = too weak to quantify, mostly under pKd 3.1 to 4
# Conditions: plain residues with an end cap or a label only (N-terminal biotin on a linker: ado-ado)
row,pKd,Binder
1,below the threshold,B1
2,below the threshold,B2
3,below the threshold,B3

# Target: GRID2IP_2, A4D2P6
# Sequence (A4D2P6 272-370): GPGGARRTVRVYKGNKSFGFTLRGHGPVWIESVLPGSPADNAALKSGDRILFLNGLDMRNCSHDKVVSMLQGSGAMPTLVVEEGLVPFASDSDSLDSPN
# Test: holdup assay
# Set-up: key: below the threshold = too weak to quantify, mostly under pKd 3.1 to 4
# Conditions: plain residues with an end cap or a label only (N-terminal biotin on a linker: ado-ado)
row,pKd,Binder
1,below the threshold,B1
2,below the threshold,B2
3,3.89,B3

# Target: T5, SNTB1, Q13884
# Test: holdup assay
# Set-up: key: below the threshold = too weak to quantify, mostly under pKd 3.1 to 4
# Conditions: plain residues with an end cap or a label only (N-terminal biotin on a linker: ado-ado)
row,pKd,Binder
1,below the threshold,B1
2,below the threshold,B2
3,below the threshold,B3

# Target: T6, PDZD7_3, Q9H5P4
# Test: holdup assay
# Set-up: key: below the threshold = too weak to quantify, mostly under pKd 3.1 to 4
# Conditions: plain residues with an end cap or a label only (N-terminal biotin on a linker: ado-ado)
row,pKd,Binder
1,below the threshold,B1
2,3.74,B2
3,below the threshold,B3

# Target: Inadl_6, Q8NI35
# Sequence (Q8NI35 1058-1167): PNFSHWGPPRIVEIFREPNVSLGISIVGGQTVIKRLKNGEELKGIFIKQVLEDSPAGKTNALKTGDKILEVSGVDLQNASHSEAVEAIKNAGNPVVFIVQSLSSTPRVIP
# Test: holdup assay
# Set-up: key: below the threshold = too weak to quantify, mostly under pKd 3.1 to 4
# Conditions: plain residues with an end cap or a label only (N-terminal biotin on a linker: ado-ado)
row,pKd,Binder
1,below the threshold,B1
2,below the threshold,B2
3,3.7,B3

# Target: T7, SYNJ2BP, P57105
# Test: holdup assay
# Set-up: key: below the threshold = too weak to quantify, mostly under pKd 3.1 to 4
# Conditions: plain residues with an end cap or a label only (N-terminal biotin on a linker: ado-ado)
row,pKd,Binder
1,below the threshold,B1
2,below the threshold,B2
3,3.91,B3

# Target: MAST1, Q9Y2H9
# Sequence (Q9Y2H9 962-1065): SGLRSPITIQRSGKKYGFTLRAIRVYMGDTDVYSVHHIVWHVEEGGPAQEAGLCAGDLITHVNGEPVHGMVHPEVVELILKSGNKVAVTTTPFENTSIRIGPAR
# Test: holdup assay
# Set-up: key: below the threshold = too weak to quantify, mostly under pKd 3.1 to 4
# Conditions: plain residues with an end cap or a label only (N-terminal biotin on a linker: ado-ado)
row,pKd,Binder
1,3.61,B1
2,4.11,B2
3,below the threshold,B3

# Target: PDLIM1, O00151
# Sequence (O00151 1-87): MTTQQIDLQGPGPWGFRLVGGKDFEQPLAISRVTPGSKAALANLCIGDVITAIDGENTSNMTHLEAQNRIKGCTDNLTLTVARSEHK
# Test: holdup assay
# Set-up: key: below the threshold = too weak to quantify, mostly under pKd 3.1 to 4
# Conditions: plain residues with an end cap or a label only (N-terminal biotin on a linker: ado-ado)
row,pKd,Binder
1,below the threshold,B1
2,5.23,B2
3,below the threshold,B3

# Target: T8, SNTA1, Q13424
# Test: holdup assay
# Set-up: key: below the threshold = too weak to quantify, mostly under pKd 3.1 to 4
# Conditions: plain residues with an end cap or a label only (N-terminal biotin on a linker: ado-ado)
row,pKd,Binder
1,below the threshold,B1
2,3.57,B2
3,below the threshold,B3

# Target: Inadl_4, Q8NI35
# Sequence (Q8NI35 547-651): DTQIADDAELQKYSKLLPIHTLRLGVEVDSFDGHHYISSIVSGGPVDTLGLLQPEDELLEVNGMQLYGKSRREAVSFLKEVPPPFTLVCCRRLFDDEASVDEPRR
# Test: holdup assay
# Set-up: key: below the threshold = too weak to quantify, mostly under pKd 3.1 to 4
# Conditions: plain residues with an end cap or a label only (N-terminal biotin on a linker: ado-ado)
row,pKd,Binder
1,below the threshold,B1
2,below the threshold,B2
3,below the threshold,B3

# Target: MAGI2_6, Q86UL8
# Sequence (Q86UL8 1141-1229): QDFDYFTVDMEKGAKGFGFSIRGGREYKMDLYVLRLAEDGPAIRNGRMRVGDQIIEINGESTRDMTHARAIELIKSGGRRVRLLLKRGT
# Test: holdup assay
# Set-up: key: below the threshold = too weak to quantify, mostly under pKd 3.1 to 4
# Conditions: plain residues with an end cap or a label only (N-terminal biotin on a linker: ado-ado)
row,pKd,Binder
1,below the threshold,B1
2,4.01,B2
3,4.31,B3

# Target: T9, GRIP1_5, Q9Y3R0
# Test: holdup assay
# Set-up: key: below the threshold = too weak to quantify, mostly under pKd 3.1 to 4
# Conditions: plain residues with an end cap or a label only (N-terminal biotin on a linker: ado-ado)
row,pKd,Binder
1,below the threshold,B1
2,below the threshold,B2
3,below the threshold,B3

# Target: T10, APBA2_2, Q99767
# Test: holdup assay
# Set-up: key: below the threshold = too weak to quantify, mostly under pKd 3.1 to 4
# Conditions: plain residues with an end cap or a label only (N-terminal biotin on a linker: ado-ado)
row,pKd,Binder
1,below the threshold,B1
2,below the threshold,B2
3,below the threshold,B3

# Target: DLG1_1, Q12959
# Test: holdup assay
# Set-up: key: below the threshold = too weak to quantify, mostly under pKd 3.1 to 4
# Conditions: plain residues with an end cap or a label only (N-terminal biotin on a linker: ado-ado)
row,pKd,Binder
1,below the threshold,B1
2,below the threshold,B2
3,below the threshold,B3

# Target: T11, DLG3_1, Q92796
# Test: holdup assay
# Set-up: key: below the threshold = too weak to quantify, mostly under pKd 3.1 to 4
# Conditions: plain residues with an end cap or a label only (N-terminal biotin on a linker: ado-ado)
row,pKd,Binder
1,below the threshold,B1
2,below the threshold,B2
3,below the threshold,B3

# Target: T12, TJP3_3, O95049
# Test: holdup assay
# Set-up: key: below the threshold = too weak to quantify, mostly under pKd 3.1 to 4
# Conditions: plain residues with an end cap or a label only (N-terminal biotin on a linker: ado-ado)
row,pKd,Binder
1,below the threshold,B1
2,below the threshold,B2
3,5,B3

# Target: SCRIB_2, Q14160
# Sequence (Q14160 857-960): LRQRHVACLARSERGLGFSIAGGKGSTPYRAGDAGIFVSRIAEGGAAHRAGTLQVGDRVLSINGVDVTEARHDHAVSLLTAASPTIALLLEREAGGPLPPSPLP
# Test: holdup assay
# Set-up: key: below the threshold = too weak to quantify, mostly under pKd 3.1 to 4
# Conditions: plain residues with an end cap or a label only (N-terminal biotin on a linker: ado-ado)
row,pKd,Binder
1,below the threshold,B1
2,below the threshold,B2
3,below the threshold,B3

# Target: GRIP2_4, Q9C0E4
# Sequence (Q9C0E4 446-548): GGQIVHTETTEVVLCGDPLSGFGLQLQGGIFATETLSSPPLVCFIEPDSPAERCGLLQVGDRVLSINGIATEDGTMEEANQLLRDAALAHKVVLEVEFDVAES
# Test: holdup assay
# Set-up: key: below the threshold = too weak to quantify, mostly under pKd 3.1 to 4
# Conditions: plain residues with an end cap or a label only (N-terminal biotin on a linker: ado-ado)
row,pKd,Binder
1,below the threshold,B1
2,below the threshold,B2
3,below the threshold,B3

# Target: T13, SIPA1L2, Q9P2F8
# Test: holdup assay
# Set-up: key: below the threshold = too weak to quantify, mostly under pKd 3.1 to 4
# Conditions: plain residues with an end cap or a label only (N-terminal biotin on a linker: ado-ado)
row,pKd,Binder
1,below the threshold,B1
2,below the threshold,B2
3,below the threshold,B3

# From article PMC9482650, “Quantitative fragmentomics allow affinity mapping of interactomes” (Nature Communications, 2022)
